Data on two substances can be found in PMC3235159.

Experiment [1] concerns the target Purified LRP1 (LDL receptor-related protein 1) (UniProt Q07954). The experiment in a line: SPR; purified LRP1 immobilised on a CM5 chip by amine coupling (5.8 fmol/mm^2, 3,500 RU); TGF-β2 flowed at 6, 12, 15, 50, 100 and 200 nM; HBS-P pH 7.4, 0.005% Tween 20, 1 mM CaCl2, 20 µl/min, 25°C; Rmax of pseudo-first order fits replotted against concentration and fit to a single class of sites. Background: SPR reads the build-up and loss of mass on a sensor chip optically.

Experiment [2] has as its target TGF-β1 (Homo sapiens) (UniProt P01137). The following applies: cited from earlier work.

Sequence of LRP1 (Q07954 20-4544): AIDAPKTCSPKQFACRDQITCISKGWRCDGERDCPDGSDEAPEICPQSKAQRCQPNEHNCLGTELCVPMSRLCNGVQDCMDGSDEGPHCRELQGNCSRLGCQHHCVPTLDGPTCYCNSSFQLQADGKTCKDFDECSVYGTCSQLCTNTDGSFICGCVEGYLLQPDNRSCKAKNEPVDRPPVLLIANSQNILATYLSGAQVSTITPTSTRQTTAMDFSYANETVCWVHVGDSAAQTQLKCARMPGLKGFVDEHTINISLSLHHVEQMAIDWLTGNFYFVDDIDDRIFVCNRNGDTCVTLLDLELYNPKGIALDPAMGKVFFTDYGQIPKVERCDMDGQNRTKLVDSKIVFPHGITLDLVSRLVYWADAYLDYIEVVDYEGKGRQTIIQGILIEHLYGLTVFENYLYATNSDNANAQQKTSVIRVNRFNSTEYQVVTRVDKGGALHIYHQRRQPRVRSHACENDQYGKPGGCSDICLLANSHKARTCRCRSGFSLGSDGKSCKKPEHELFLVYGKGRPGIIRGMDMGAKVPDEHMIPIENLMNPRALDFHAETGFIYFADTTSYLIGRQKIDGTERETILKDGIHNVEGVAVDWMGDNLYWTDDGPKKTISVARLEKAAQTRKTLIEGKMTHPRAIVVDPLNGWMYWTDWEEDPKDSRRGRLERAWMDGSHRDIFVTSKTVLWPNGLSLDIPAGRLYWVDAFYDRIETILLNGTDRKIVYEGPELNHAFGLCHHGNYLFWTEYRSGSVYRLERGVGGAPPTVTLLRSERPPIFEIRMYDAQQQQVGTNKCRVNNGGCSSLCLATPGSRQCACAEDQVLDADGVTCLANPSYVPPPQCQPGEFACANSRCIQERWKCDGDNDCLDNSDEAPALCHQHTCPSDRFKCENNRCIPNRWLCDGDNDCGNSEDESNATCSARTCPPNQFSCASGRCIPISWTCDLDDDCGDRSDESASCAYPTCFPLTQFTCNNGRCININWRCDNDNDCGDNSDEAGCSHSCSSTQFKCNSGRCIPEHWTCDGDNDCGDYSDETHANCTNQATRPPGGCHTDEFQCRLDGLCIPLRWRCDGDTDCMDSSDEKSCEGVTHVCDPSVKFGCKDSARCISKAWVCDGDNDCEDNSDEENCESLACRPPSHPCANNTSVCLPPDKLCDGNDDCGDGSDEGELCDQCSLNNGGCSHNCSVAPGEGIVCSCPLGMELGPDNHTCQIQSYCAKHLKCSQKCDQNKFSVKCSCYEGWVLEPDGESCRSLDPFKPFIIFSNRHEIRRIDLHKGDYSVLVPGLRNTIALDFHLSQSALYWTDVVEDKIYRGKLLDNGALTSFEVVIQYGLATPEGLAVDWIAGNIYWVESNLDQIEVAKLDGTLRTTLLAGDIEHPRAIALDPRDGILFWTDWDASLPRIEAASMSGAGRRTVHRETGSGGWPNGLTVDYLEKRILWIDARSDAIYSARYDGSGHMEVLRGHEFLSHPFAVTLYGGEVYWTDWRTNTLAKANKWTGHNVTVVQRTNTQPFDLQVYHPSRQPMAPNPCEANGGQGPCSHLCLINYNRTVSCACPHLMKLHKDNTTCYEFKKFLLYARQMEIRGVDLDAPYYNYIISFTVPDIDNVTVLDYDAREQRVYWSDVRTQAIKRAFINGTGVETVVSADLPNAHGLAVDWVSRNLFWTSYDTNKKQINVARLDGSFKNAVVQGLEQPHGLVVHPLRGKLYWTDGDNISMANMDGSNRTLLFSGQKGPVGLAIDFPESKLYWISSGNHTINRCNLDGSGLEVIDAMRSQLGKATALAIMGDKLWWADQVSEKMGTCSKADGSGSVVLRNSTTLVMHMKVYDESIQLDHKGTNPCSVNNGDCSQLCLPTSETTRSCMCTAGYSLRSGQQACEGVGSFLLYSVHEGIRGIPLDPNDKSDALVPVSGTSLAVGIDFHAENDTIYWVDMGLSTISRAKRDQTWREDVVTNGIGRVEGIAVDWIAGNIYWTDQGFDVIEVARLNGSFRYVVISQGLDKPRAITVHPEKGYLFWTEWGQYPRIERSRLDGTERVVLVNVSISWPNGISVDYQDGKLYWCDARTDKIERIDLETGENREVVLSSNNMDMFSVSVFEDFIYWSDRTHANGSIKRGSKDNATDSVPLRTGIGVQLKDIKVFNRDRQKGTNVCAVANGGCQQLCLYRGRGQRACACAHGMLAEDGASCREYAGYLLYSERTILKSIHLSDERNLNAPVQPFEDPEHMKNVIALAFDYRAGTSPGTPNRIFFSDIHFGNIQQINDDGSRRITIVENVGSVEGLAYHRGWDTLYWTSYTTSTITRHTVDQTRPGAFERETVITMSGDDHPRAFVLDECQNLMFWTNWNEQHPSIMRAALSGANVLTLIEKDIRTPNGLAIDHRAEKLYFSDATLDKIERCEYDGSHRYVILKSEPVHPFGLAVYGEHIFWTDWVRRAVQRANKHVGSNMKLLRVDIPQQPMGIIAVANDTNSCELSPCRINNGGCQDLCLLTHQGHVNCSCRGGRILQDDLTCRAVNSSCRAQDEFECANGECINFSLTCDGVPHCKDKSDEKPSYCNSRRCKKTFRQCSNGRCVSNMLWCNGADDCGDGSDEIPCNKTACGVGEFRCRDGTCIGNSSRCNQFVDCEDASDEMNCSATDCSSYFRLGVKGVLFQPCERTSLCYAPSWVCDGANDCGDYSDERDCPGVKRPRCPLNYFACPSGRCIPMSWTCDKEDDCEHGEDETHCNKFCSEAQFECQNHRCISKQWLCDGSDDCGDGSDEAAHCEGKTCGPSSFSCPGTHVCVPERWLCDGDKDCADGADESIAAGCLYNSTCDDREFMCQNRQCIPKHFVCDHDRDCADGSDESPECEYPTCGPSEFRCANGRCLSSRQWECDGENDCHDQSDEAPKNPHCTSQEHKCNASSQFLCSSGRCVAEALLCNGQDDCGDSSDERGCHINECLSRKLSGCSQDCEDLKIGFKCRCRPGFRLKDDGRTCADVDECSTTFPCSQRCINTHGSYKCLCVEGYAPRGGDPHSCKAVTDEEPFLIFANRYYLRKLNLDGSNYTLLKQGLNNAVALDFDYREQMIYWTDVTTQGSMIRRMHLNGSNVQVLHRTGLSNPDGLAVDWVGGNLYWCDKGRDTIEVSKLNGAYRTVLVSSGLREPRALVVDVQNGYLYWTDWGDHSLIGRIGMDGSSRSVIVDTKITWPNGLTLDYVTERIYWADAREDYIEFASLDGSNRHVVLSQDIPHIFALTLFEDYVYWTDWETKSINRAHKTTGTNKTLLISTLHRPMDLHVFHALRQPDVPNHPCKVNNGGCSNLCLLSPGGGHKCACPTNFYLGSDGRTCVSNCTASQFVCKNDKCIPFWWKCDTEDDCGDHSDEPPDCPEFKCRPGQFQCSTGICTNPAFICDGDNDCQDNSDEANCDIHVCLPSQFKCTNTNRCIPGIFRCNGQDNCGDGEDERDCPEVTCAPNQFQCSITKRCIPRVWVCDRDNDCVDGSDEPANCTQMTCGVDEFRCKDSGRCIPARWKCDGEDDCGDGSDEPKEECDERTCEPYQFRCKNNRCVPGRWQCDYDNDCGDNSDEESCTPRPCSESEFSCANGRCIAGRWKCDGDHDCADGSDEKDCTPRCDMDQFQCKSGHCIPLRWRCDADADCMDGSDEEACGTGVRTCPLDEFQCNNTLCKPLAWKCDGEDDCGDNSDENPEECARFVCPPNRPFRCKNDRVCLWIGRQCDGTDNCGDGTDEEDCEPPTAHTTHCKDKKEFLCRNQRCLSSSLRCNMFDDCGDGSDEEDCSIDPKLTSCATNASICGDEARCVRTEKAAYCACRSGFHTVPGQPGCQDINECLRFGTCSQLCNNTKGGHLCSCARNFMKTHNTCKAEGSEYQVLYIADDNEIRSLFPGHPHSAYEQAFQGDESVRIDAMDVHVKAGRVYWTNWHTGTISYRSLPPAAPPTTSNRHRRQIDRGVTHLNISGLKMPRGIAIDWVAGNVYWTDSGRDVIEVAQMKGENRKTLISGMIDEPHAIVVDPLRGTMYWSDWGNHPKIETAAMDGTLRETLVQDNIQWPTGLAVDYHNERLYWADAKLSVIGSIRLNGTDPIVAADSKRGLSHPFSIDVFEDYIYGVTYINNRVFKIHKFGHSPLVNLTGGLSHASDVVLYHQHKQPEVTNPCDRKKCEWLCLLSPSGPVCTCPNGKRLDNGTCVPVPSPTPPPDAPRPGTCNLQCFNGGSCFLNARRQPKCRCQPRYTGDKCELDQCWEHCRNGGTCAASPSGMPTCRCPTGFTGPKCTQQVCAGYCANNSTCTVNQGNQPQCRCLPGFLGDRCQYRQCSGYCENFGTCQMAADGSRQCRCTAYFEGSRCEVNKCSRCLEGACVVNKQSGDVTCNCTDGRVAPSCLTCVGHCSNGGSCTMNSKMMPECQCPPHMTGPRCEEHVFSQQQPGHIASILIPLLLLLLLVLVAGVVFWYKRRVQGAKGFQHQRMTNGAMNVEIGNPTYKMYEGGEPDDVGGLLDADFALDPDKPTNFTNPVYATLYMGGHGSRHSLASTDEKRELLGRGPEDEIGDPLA
Sequence of Purified LRP1 (LDL receptor-related protein 1) (Q07954 20-4544): as above
Sequence of TGF-β1 (Homo sapiens) (P01137 279-390): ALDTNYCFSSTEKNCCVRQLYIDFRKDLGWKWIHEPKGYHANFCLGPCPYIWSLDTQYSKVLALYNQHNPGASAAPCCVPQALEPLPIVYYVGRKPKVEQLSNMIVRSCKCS

The Kd is the free concentration of one partner at which half of the binding sites on the other are occupied at equilibrium, for simple one-to-one binding. As to TGF-β2 (Sigma) (ligand), the dissociation constant Kd in experiment [1] came out at 222 nM.
As for LRP1 (from UniProt Q07954), the Kd in experiment [2] is 157 nM.
